Measured values: US20240218054A1 (MABLOC, published 2024)

B1: ADI-42193 (antibody, V domains shown)
VH: EVQLLESGGGLVQPGGSLRLSCAASGFIFSDHYMAWVRQAPGKGLEWVGRSRNRPNSYTTEYAASAKGRFTISRDDSKTSLYLQMNSLKTEDTAVYYCAREHGDYGLDYWGQGTLVTVSS
VL: QPVLIQPPSASGTPGQRVTISCSGSSSNFGSNFVYWYQQLPGTAPKLLIYRVNQRPSGVPDRFSGSKSGTSASLAISGLRSEDEADYYCATWDVSLSNDVLFGGGTKLTVL
notes: full-length IgG; also called Antibody Number 95
B2: ADI-48435 (antibody, V domains shown)
VH: QVQLVQSGAEVKKPGASVKVSCKASGYTFTSYGISWVRQAPGQGLEWMGWISAYNGNTNYAQKLQGRVTMTTDTSTSTAYMELRSLRSDDTAVYYCARRGTTVTRFGVIQYYYGMDVWGQGTTVTVSS
VL: QSVLTQPASVSGSPGQSITISCTGTSSDVGGYNYVSWYQQHPGKAPKLMIYDVSNRPSGVSNRFSGSKSGNTASLTISGLQAEDEADYYCSSYTSSSTLVFGGGTQLTVL
notes: full-length IgG; also called Antibody Number 85
B3: ADI-42213 (antibody, V domains shown)
VH: EVQLLESGGGLVQPGGSLRLSCAASGFTFTYYAMSWVRQAPGKGLEWVSGISGSGDSTYNADSVKGRVTISRDNSKNTLYLQMNSLRAEDTAVYYCAKDGGYSTDWYFDLWGRGTLVTVSS
VL: EIVLTQSPGTLSLSPGERATLSCRASQSVSSSFLAWYQQKPGQAPRLLIYGASSRATGIPDRFSGSGSGTDFTLTIRRLEPEDFAVYYCQQYGSSRRTFGQGTKVEIK
notes: full-length IgG; also called Antibody Number 90
B4: ADI-42787 (antibody, V domains shown)
VH: EVQLVESGGGVVQSGRSLRLSCAASGFTFSGNAMHWVRQAPGKGLEWVAVILYDGSNQYYADSVKGRFTISRDNSKNTLYLQMNSLRPADTAVYYCARASMMPRPPVHDYWGQGTLVTVSS
VL: DIRVTQSPATLSVSPGERATLSCRASQRVNSNLAWYQQKPGQAPRLLIYGASTRATGIPVRFSGSGSGTEFTLTISSLQSEDFAVYYCQQYNTWWTFGQGTKVEIK
notes: full-length IgG; also called Antibody Number 87
B5: ADI-45128 (antibody, V domains shown)
VH: QVQLQESGPGLVRPSQTLSLTCTVSGGAISSGDYYWSWVRQPPGKGLEWIGYIHYSGTTYNNPSLKSRVTIAVDTSKNQFSLKLSSVTAADTAVYFCGRDSDKNYFDYWGQGTLVTVSS
VL: QSVLTQPPSVSAAPGQKVTISCSGSSSNIGNNDVSWYQQLPGRAPKLLIYDNNKRPSGIPDRFSGSKSGTSATLGITGLQTGDEADYYCGAWDSSLSAHVVFGGGTKVTVL
notes: full-length IgG; also called Antibody Number 79
B6: ADI-45083 (antibody, V domains shown)
VH: QVQLVESGPGLVKPSGTLSLTCAVSGGSISSDYWWSWVRQPPGKGLEYIGEIYHTGSTNYNPSLKSRVTVSLDRSKNVFSLTLRSVTAADTAVYYCARSHWRSPQSVTFDLWGQGTTVTVSS
VL: QPVLTQPPSVSAAPGQKVTISCSGSNSNIGNYYVSWYQQFPGTAPKLLIYDNNKRPSGIPDRFSGSKSGTSATLAITGLQTGDEAHYYCGTWDTSSLSAGRVFGGGTKLTVL
notes: full-length IgG; also called Antibody Number 9
B7: ADI-49590 (antibody, V domains shown)
VH: QVQLVQSGAEVKKPGASVKVSCKASGYTFTGYYMHWVRQAPGQGLEWMGRINPNSGGTNYAQKFQGRVTMTRDTSISTAYMELSRLRSDDTAVYYCYVDYYYDSSGYYSPFDYWGQGTLVTVSS
VL: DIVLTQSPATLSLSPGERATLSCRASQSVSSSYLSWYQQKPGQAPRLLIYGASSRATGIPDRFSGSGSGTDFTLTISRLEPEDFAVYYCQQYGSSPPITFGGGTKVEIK
notes: full-length IgG; also called Antibody Number 96
B8: ADI-42189 (antibody, V domains shown)
VH: EVQLVESGGGVVQPGWSLRLSCAVSGFTFSSYAMHWVRQAPGKGLEWVAVISYDGSYKWYADSVKGRFTISRDNSKNTVYLQMNSLRAEDTAVYYCASLWFIVMTMSKNPETDYWGQGTLVTVSS
VL: DIQVTQSPSSLSASVGDRVTITCRASQGIRNDLAWYQQRPGKAPKRLIYAASSLQSGVPSRFSGSGSGTEFTLTISSLQPEDFATYYCLQHHSYPWTFGQGTKVEIK
notes: full-length IgG; also called Antibody Number 81
B9: ADI-49162 (antibody, V domains shown)
VH: EVQLVESGGTFLQPGGSLRLSCVASGFTFGTHAMSWVRQAPGKGLEWVSTFSGSGGRTYYADSVKGRFTISRDNSKSTLYLEMSALRAEDTAVYYCAKFYDSSGYYYFDYWGQGTLVTVSS
VL: DIQLTQSPSTLSASVGDRVTVTCRASQNVGGWLAWYQQKPGKAPKLLIFQASRLENGVPSRFSANASGTEFTLTIGSLQPDDFATYYCQQYNTYPYTFGQGTKVDIK
notes: full-length IgG; also called Antibody Number 83
B10: ADI-42192 (antibody, V domains shown)
VH: EVQLLESGPGLVKPSQTLSLTCSVSGGSISSGGYYWTWIRQPPGKGLEWIGYIYYTGSTYYNPSLKSRVTISVDTSKNQFSLKLSSVTAADTAVYFCARAEYDTSGYYQQRLPEYFQHWGQGTLVTVSS
VL: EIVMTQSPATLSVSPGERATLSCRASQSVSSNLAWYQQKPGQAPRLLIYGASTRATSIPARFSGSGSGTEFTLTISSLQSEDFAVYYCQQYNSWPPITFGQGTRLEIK
notes: full-length IgG; also called Antibody Number 93
B11: ADI-48968 (antibody, V domains shown)
VH: EVQLLESGGGLGQPGGSLRLSCVASKFTFSDHYMDWVRQAPGKGLEWVGRIRNKPNGYTTEYAASVKGRFIISRDDSKNSLYLQMKSLKIEDTAIYYCVRVWGGEAARYDYWGQGALVTVSS
VL: DIRLTQSPSSLSASVGDRVTITCRASQDIRKFLNWYQQKLGKAPSLLIYGASSLQSGVPSRFSGSGSGTDFTLTISSLQPEDFAIYYCQHASTTPWTFGQGTKVEIK
notes: full-length IgG; also called Antibody Number 98
B12: ADI-45078 (antibody, V domains shown)
VH: EVQLVESGGGLIQPGGSLRLSCAASGFSFSSHAMTWVRQAPGKGLQWVSSIRGSDRTTNYADSVKGRFTVSRDNSKNTLYLQMNSLRAEDTAIYYCAKYYDSSGYYYFDHWGQGTLVTVSS
VL: DIRMTQSPSTLSASIGDRVTITCRASQSISDWLAWYLQKPGKAPSLLIYRASSLETGVPSRFSGRGSGTEFTLTISSLQPDDFGTYYCQQYNRDPYTFGQGTKVDIK
notes: full-length IgG; also called Antibody Number 82
B13: ADI-42212 (antibody, V domains shown)
VH: EVQLVESGGGLVQPGGSLRLSCAASGFTFSDHYMDWVRQAPGKGLEWVGRSRNKPNSYITEYAASVKGRFTISRDDSKNSLYLQMNSLKTEDTAVYYCSRHMGFGLDLWGQGTLVTVSS
VL: SYELTQPPSVSVSPGQTATITCSGDKLGYTYTCWYQQKPGQSPVLVIYQDTKRPSGIPERFSGSNSGNTATLTITGTQAMDEADYYCQAWDTTTAGGVFGGGTKLTVL
notes: full-length IgG; also called Antibody Number 99
B14: ADI-49141 (antibody, V domains shown)
VH: EVQLQESGPGLVKPSGTLSLTCAVSGGSISSSNWWTWVRQPPGKGLEWIGEIYHSGSTNYNPSLESRVTMSVDKSKNQFSLKLSSVTAADTAVYYCARVQTSHSELWFGEFGADWGQGTLVTVSS
VL: DIVMTQSPATLSVSPGERATLSCRASQSVSSNLAWYQQKPGQAPRLLIYGASTRATGIPARFSGSGSGTEFTLTISSLQSEDFAVYSCQQYNTWPKTFGQGTKVEIK
notes: full-length IgG; also called Antibody Number 89
B15: ADI-45161 (antibody, V domains shown)
VH: QVQLQESGGGVVQPGRSLRLSCAASGFTFSSYGMHWVRQAPGKGLEWVAVIWYDGSNKYYADSVKGRFTISRDNSKNTLYLQMNSLRAEDTAVYYCARDVGYQLLQVYGMDVWGQGTTVTVSS
VL: QSALTQPASVSGSPGQSITISCTGTSSDVGGYNYVSWYQQHPGKAPKLMIYEVSNRPSGVSNRFSGSKSGNTASLTISGLQAEDEADYYCSSYTSSSTLDVVFGGGTKLTVL
notes: full-length IgG; also called Antibody Number 92
B16: ADI-46742 (antibody, V domains shown)
VH: QVQLQESGPGLVKPSETLSLTCTVSGASIRSYLWSWIRQPPGKELEWLGSIYHSGSTKYNPSLKSRVTISADTSKNQFSLKLNSVTAADTAVFYCARETANNWFDPWGQGTLVTVSS
VL: SYELTQPPSVSVAPGQTARIICGGNYIGGKSVHWYQQKPGQAPVLVVYNDNDRPSGIPERFSGSNSGNTATLTISRVAAGDEADYYCQVWDNSSDRRVFGGGTKLTVL
notes: full-length IgG; also called Antibody Number 86
B17: ADI-45076 (antibody, V domains shown)
VH: EVQLVESGGGFVQPGGSLRLSCAASGFIFSDYYMDWVRQAPGKGLEWVGRIRNKPNSYTTEYAASVKGRFSISRDDLKNSLYLQMNSLKTEDTAEYYCARVDGEEVALIYWGQGALVTVSS
VL: DIQMTQSPSSLSASVGDRVTITCRASQTITRYMNWYQQKPGEAPKLLIYATSSLQSGVPSRFSGSGSGTDFTLTITNLQPADFATYYCQQSSTTRWTFGQGTKVDIK
notes: full-length IgG; also called Antibody Number 97
B18: ADI-45136 (antibody, V domains shown)
VH: EVQLVESGGGVVRPGRSLRLSCAASGFTFSSYGMHWVRQAPGKGLEWVAVIRFDGSNTVYADSVKGRFTISRDNSKNTLYLQMNSLRAEDTAVYYCAKTYDSNAYYYLDYWGQGTLVTVSS
VL: DIVMTQTPSTLSASVGDRVTVTCRASQSISDWLAWYQQKAGKAPKLLIYRASSLESGVPPRFSGSGSGTEFTLTISSLRPDDFATYYCQQYNRYPYTFGQGTKVDIK
notes: full-length IgG; also called Antibody Number 80
B19: ADI-48910 (antibody, V domains shown)
VH: EVQLVQSGGGLVQRGGSLRLSCAASGFTFSSYAMTWVRQAPGKGLEWVSDMNHSGDRTNYADSVRGRFTISRDNSKNTLYLQMNSLRAEDTAVYYCAKYYDSSGYYYFHSWGQGTLVTVSS
VL: DIRLTQSPSTLSASVGDRVSITCRASQSISDWLAWYQQKPGKAPKLLIYRASGLETGVPSRFSGSGSGTEFTLTISSLQPDDFATYYCQQYNRYPYTFGQGTKVDIK
notes: full-length IgG; also called Antibody Number 94
B20: ADI-42844 (antibody, V domains shown)
VH: QVQLVESGGGVVQPGRSLRLSCTASGFTFSSYGMHWVRQAPGKGPEWVAVISYDGSKKYFADSVKGRFTISRDNSKNTLYLQMNSLRAEDTAVYSCAKGYDSNGYYYIDYWGQGTPVTVSS
VL: DIRVTQSPSTLSASVGDRVTITCRASQSISSWLAWYQQKPGKAPKLLIYRASSLESGVPSRFSGSGSGTEFTLTISSLQPDDFATYYCQQYNRYPYTFGQGTKVEIK
notes: full-length IgG; also called Antibody Number 91
B21: ADI-49044 (antibody, V domains shown)
VH: QVQLVESGGGVVQPGRSLRLSCAASGFAFSSYGMHWVRQAPGKGLEWVAGMRFDGTKIYYADSVKGRFTISRDNSKNTLYLQMNSLRAEDTAVYFCARDLEVGAEYIYYYYGMDVWGQGTTVTVSS
VL: QPVLTQPPSASGTPGQRVTISCSGSSSNIGTNTVSWYQQLPGTAPQLLVFSRTQRPSGVPDRFSGSKSGTSASLAISGLQSDDEADYYCAAWDDSRNGWVFGGGTKLTVL
notes: full-length IgG; also called Antibody Number 8
B22: ADI-42223 (antibody, V domains shown)
VH: EVQLVESGGGLVQPGGSLRLSCAASGFTFSDYYMDWVRQAPGKGLEWVGGIRNKPNSYTTEYAASVKGRFTISRDDSKNSLFLQMNSLKTEDTAVYYCVRLYGDYVAYFDYWGQGTLVTVSS
VL: DIQLTQSPSSLSASVGDRVTITCRASQSISQYLNWYQQKPGKAPKLLISPASSFQSGVPSRFSGSGSGTDFTLTITSLQPEDFATYYCQQSYSTPWTFGQGTKVDIK
notes: full-length IgG; also called Antibody Number 84

molecular target: T1, recombinant YFV E protein (soluble E, sE; YFV Asibi strain) (Yellow fever virus, Asibi strain, UniProt Q6DV88 286-678); test: BLI monovalent (IgG on tip)
T1 construct: also called YFV E antigen; YFV E monomer
T1 sequence (Q6DV88 286-678): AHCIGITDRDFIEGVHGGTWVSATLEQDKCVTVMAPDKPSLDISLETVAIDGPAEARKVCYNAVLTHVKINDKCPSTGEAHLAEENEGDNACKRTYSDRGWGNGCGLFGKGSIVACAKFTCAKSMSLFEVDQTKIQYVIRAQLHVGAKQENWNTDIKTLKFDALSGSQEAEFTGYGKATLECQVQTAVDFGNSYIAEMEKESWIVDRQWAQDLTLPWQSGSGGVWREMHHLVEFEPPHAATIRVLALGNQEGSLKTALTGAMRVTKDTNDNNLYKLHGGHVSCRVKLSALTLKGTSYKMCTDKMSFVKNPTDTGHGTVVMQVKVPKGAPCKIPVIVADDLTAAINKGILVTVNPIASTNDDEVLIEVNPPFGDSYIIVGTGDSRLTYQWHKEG

Binder | Kd [nM]
B1 | 0.922
B2 | > 100
B3 | 15.2
B4 | 0.45
B5 | 3.54
B6 | 3.45
B7 | 109
B8 | 2.4
B9 | 2.19
B10 | 204
B11 | 0.963
B12 | 5.88
B13 | 0.884
B14 | 187
B15 | > 100
B16 | > 100
B17 | 0.882
B18 | 16.8
B19 | 2.42
B20 | 137
B21 | 1.88
B22 | 1.04
